Reference: paper PMC10110553

Key:
[1] = target: Hsp90 of the yeast-purified Hsp90:Cdc37:CRaf^KD complex (human) (UniProt P08238); experiment: cryo-EM structure; same sample as a1; pairs inside the natively isolated Hsp90^closed:Cdc37:CRaf^KD complex, which was assembled in yeast and co-purified
[2] = target: Hsp90 (E. coli purified; used as Hsp90^open without nucleotide or Hsp90^closed) (human) (UniProt P08238); experiment: fluorescence correlation spectroscopy (FCS); ~20 nM Alexa488-labelled PP5 with varying concentrations of Hsp90^open; room temperature; hydrodynamic radius against Hsp90 concentration, one-site total binding fit; apparent KD
[3] = target: Hsp90 (E. coli purified; used as Hsp90^open without nucleotide or Hsp90^closed) (human) (UniProt P08238); experiment: fluorescence correlation spectroscopy (FCS); ~20 nM Alexa488-labelled PP5 with varying concentrations of Hsp90^closed dimer; room temperature; hydrodynamic radius against Hsp90 concentration, one-site total binding fit; apparent KD
[4] = target: Hsp90 (E. coli purified; used as Hsp90^open without nucleotide or Hsp90^closed) (human) (UniProt P08238); experiment: as above; remark: listed apart in the source
[5] = target: Hsp90 of the mammalian-purified Hsp90:Cdc37:CRaf complexes (human) (UniProt P08238)
[6] = target: Hsp90 (E. coli purified; used as Hsp90^open without nucleotide or Hsp90^closed) (human) (UniProt P08238)
[7] = target: Hsp90 of the mammalian-purified Hsp90:Cdc37:CRaf complexes (human) (UniProt P08238); remark: listed apart in the source
[8] = target: Hsp90 (E. coli purified; used as Hsp90^open without nucleotide or Hsp90^closed) (human) (UniProt P08238); remark: listed apart in the source

Chain of UniProt P08238 (P08238 2-724 limits assumed): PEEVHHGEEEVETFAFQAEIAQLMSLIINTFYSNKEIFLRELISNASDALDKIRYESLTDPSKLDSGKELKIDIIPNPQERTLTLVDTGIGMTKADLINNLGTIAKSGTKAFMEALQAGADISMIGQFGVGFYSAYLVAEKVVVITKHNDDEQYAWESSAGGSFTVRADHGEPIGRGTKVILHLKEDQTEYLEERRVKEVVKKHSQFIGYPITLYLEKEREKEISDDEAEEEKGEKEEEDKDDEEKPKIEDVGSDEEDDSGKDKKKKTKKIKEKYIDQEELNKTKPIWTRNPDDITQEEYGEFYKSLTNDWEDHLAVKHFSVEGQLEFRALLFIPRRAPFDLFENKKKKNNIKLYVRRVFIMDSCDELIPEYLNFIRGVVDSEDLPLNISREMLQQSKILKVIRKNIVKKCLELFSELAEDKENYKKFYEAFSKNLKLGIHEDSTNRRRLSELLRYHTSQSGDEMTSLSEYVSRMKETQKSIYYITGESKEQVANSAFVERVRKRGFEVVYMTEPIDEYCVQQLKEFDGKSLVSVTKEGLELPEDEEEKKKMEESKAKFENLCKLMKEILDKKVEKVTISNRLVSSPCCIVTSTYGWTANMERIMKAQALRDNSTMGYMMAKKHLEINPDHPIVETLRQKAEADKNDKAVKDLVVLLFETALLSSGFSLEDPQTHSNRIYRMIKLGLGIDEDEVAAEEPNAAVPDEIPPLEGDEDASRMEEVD

Molecule | stoichiometry N [1] | Kd [2] [nM] | Kd [3] [nM] | Kd [4] [mM] | rate of CRaf^pS338 dephosphorylation by PP5 in the Hsp90:Cdc37:CRaf complex (3 μM complex, 150 nM PP5, 25 °C) [5] [min^−1] | rate of Cdc37^pS13 dephosphorylation by PP5 in Hsp90^open:Cdc37^pS13 (3 μM Cdc37^pS13 and equimolar Hsp90, 750 nM PP5, 25 °C) [6] [min^−1] | rate of CRaf^pS338 dephosphorylation by PP5^(αJ del) in the Hsp90:Cdc37:CRaf complex [7] [min^−1] | rate of Cdc37 dephosphorylation by PP5^(αJ del) while Cdc37 is bound to Hsp90 [8] [min⁻¹]
Hsp90 of the yeast-purified Hsp90:Cdc37:CRaf^KD complex (from UniProt P08238 1-724) (natural protein) | 2 |  |  |  |  |  |  | 
Serine/threonine-protein phosphatase 5 (PP5), wild type (enzyme, Alexa488 (maleimide dye) in the FCS assays) MAMAEGERTECAEPPRDEPPADGALKRAEELKTQANDYFKAKDYENAIKFYSQAIELNPSNAIYYGNRSLAYLRTECYGYALGDATRAIELDKKYIKGYYRRAASNMALGKFRAALRDYETVVKVKPHDKDAKMKYQECNKIVKQKAFERAIAGDEHKRSVVDSLDIESMTIEDEYSGPKLEDGKVTISFMKELMQWYKDQKKLHRKCAYQILVQVKEVLSKLSTLVETTLKETEKITVCGDTHGQFYDLLNIFELNGLPSETNPYIFNGDFVDRGSFSVEVILTLFGFKLLYPDHFHLLRGNHETDNMNQIYGFEGEVKAKYTAQMYELFSEVFEWLPLAQCINGKVLIMHGGLFSEDGVTLDDIRKIERNRQPPDSGPMCDLLWSDPQPQNGRSISKRGVSCQFGPDVTKAFLEENNLDYIIRSHEVKAEGYEVAHGGRCVTVFSAPNYCDQMGNKASYIHLQGSDLRPQFHQFTAVPHPNVKPMAYANTLLQLGMM |  | 620 | 430 | 0.23 | 0.19 | 0.043 |  | 
PP5^F148K (enzyme, Alexa488 (maleimide dye) in the FCS assays) MAMAEGERTECAEPPRDEPPADGALKRAEELKTQANDYFKAKDYENAIKFYSQAIELNPSNAIYYGNRSLAYLRTECYGYALGDATRAIELDKKYIKGYYRRAASNMALGKFRAALRDYETVVKVKPHDKDAKMKYQECNKIVKQKAKERAIAGDEHKRSVVDSLDIESMTIEDEYSGPKLEDGKVTISFMKELMQWYKDQKKLHRKCAYQILVQVKEVLSKLSTLVETTLKETEKITVCGDTHGQFYDLLNIFELNGLPSETNPYIFNGDFVDRGSFSVEVILTLFGFKLLYPDHFHLLRGNHETDNMNQIYGFEGEVKAKYTAQMYELFSEVFEWLPLAQCINGKVLIMHGGLFSEDGVTLDDIRKIERNRQPPDSGPMCDLLWSDPQPQNGRSISKRGVSCQFGPDVTKAFLEENNLDYIIRSHEVKAEGYEVAHGGRCVTVFSAPNYCDQMGNKASYIHLQGSDLRPQFHQFTAVPHPNVKPMAYANTLLQLGMM |  |  |  | 2 | 0.05 | 0.009 |  | 
PP5^R113D (enzyme, Alexa488 (maleimide dye) in the FCS assays) MAMAEGERTECAEPPRDEPPADGALKRAEELKTQANDYFKAKDYENAIKFYSQAIELNPSNAIYYGNRSLAYLRTECYGYALGDATRAIELDKKYIKGYYRRAASNMALGKFDAALRDYETVVKVKPHDKDAKMKYQECNKIVKQKAFERAIAGDEHKRSVVDSLDIESMTIEDEYSGPKLEDGKVTISFMKELMQWYKDQKKLHRKCAYQILVQVKEVLSKLSTLVETTLKETEKITVCGDTHGQFYDLLNIFELNGLPSETNPYIFNGDFVDRGSFSVEVILTLFGFKLLYPDHFHLLRGNHETDNMNQIYGFEGEVKAKYTAQMYELFSEVFEWLPLAQCINGKVLIMHGGLFSEDGVTLDDIRKIERNRQPPDSGPMCDLLWSDPQPQNGRSISKRGVSCQFGPDVTKAFLEENNLDYIIRSHEVKAEGYEVAHGGRCVTVFSAPNYCDQMGNKASYIHLQGSDLRPQFHQFTAVPHPNVKPMAYANTLLQLGMM |  |  |  | 4.3 | 0.046 | 0.006 |  | 
PP5^R150D (enzyme, Alexa488 (maleimide dye) in the FCS assays) MAMAEGERTECAEPPRDEPPADGALKRAEELKTQANDYFKAKDYENAIKFYSQAIELNPSNAIYYGNRSLAYLRTECYGYALGDATRAIELDKKYIKGYYRRAASNMALGKFRAALRDYETVVKVKPHDKDAKMKYQECNKIVKQKAFEDAIAGDEHKRSVVDSLDIESMTIEDEYSGPKLEDGKVTISFMKELMQWYKDQKKLHRKCAYQILVQVKEVLSKLSTLVETTLKETEKITVCGDTHGQFYDLLNIFELNGLPSETNPYIFNGDFVDRGSFSVEVILTLFGFKLLYPDHFHLLRGNHETDNMNQIYGFEGEVKAKYTAQMYELFSEVFEWLPLAQCINGKVLIMHGGLFSEDGVTLDDIRKIERNRQPPDSGPMCDLLWSDPQPQNGRSISKRGVSCQFGPDVTKAFLEENNLDYIIRSHEVKAEGYEVAHGGRCVTVFSAPNYCDQMGNKASYIHLQGSDLRPQFHQFTAVPHPNVKPMAYANTLLQLGMM |  |  |  | 3.3 | 0.04 | 0.012 |  | 
PP5^(αJ del) (PP5 with the last 10 residues truncated) (enzyme, Alexa488 (maleimide dye) in the FCS assays) MAMAEGERTECAEPPRDEPPADGALKRAEELKTQANDYFKAKDYENAIKFYSQAIELNPSNAIYYGNRSLAYLRTECYGYALGDATRAIELDKKYIKGYYRRAASNMALGKFRAALRDYETVVKVKPHDKDAKMKYQECNKIVKQKAFERAIAGDEHKRSVVDSLDIESMTIEDEYSGPKLEDGKVTISFMKELMQWYKDQKKLHRKCAYQILVQVKEVLSKLSTLVETTLKETEKITVCGDTHGQFYDLLNIFELNGLPSETNPYIFNGDFVDRGSFSVEVILTLFGFKLLYPDHFHLLRGNHETDNMNQIYGFEGEVKAKYTAQMYELFSEVFEWLPLAQCINGKVLIMHGGLFSEDGVTLDDIRKIERNRQPPDSGPMCDLLWSDPQPQNGRSISKRGVSCQFGPDVTKAFLEENNLDYIIRSHEVKAEGYEVAHGGRCVTVFSAPNYCDQMGNKASYIHLQGSDLRPQFHQFTAVPHPNVKPMAY |  | 120 | 130 |  |  |  | 0.28 | 0.055
